Test results published in publication doi:10.1101/2024.03.20.585881 (bioRxiv, 2024).

B1: β-catenin (natural protein, human (endogenous in HEK293 and HeLa), UniProt P35222 1-781, looked up)
chain: MATQADLMELDMAMEPDRKAAVSHWQQQSYLDSGIHSGATTTAPSLSGKGNPEEEDVDTSQVLYEWEQGFSQSFTQEQVADIDGQYAMTRAQRVRAAMFPETLDEGMQIPSTQFDAAHPTNVQRLAEPSQMLKHAVVNLINYQDDAELATRAIPELTKLLNDEDQVVVNKAAVMVHQLSKKEASRHAIMRSPQMVSAIVRTMQNTNDVETARCTAGTLHNLSHHREGLLAIFKSGGIPALVKMLGSPVDSVLFYAITTLHNLLLHQEGAKMAVRLAGGLQKMVALLNKTNVKFLAITTDCLQILAYGNQESKLIILASGGPQALVNIMRTYTYEKLLWTTSRVLKVLSVCSSNKPAIVEAGGMQALGLHLTDPSQRLVQNCLWTLRNLSDAATKQEGMEGLLGTLVQLLGSDDINVVTCAAGILSNLTCNNYKNKMMVCQVGGIEALVRTVLRAGDREDITEPAICALRHLTSRHQEAEMAQNAVRLHYGLPVVVKLLHPPSHWPLIKATVGLIRNLALCPANHAPLREQGAIPRLVQLLVRAHQDTQRRTSMGGTQQQFVEGVRMEEIVEGCTGALHILARDVHNRIVIRGLNTIPLFVQLLYSPIENIQRVAAGVLCELAQDKEAAEAIEAEGATAPLTELLHSRNEGVATYAAAVLFRMSEDKPQDYKKRLSVELTSSLFRTEPMAWNETADLGLDIGAQGEPLGYRQDDPSYRSFHSGGYGQDALGMDPMMEHEMGGHHPGADYPVDGLPDLGHAQDLMDGLPPGDSNQLAWFDTDL
B2: α-catenin (natural protein, human (endogenous in HEK293 and HeLa), UniProt P35221 1-906, looked up)
chain: MTAVHAGNINFKWDPKSLEIRTLAVERLLEPLVTQVTTLVNTNSKGPSNKKRGRSKKAHVLAASVEQATENFLEKGDKIAKESQFLKEELVAAVEDVRKQGDLMKAAAGEFADDPCSSVKRGNMVRAARALLSAVTRLLILADMADVYKLLVQLKVVEDGILKLRNAGNEQDLGIQYKALKPEVDKLNIMAAKRQQELKDVGHRDQMAAARGILQKNVPILYTASQACLQHPDVAAYKANRDLIYKQLQQAVTGISNAAQATASDDASQHQGGGGGELAYALNNFDKQIIVDPLSFSEERFRPSLEERLESIISGAALMADSSCTRDDRRERIVAECNAVRQALQDLLSEYMGNAGRKERSDALNSAIDKMTKKTRDLRRQLRKAVMDHVSDSFLETNVPLLVLIEAAKNGNEKEVKEYAQVFREHANKLIEVANLACSISNNEEGVKLVRMSASQLEALCPQVINAALALAAKPQSKLAQENMDLFKEQWEKQVRVLTDAVDDITSIDDFLAVSENHILEDVNKCVIALQEKDVDGLDRTAGAIRGRAARVIHVVTSEMDNYEPGVYTEKVLEATKLLSNTVMPRFTEQVEAAVEALSSDPAQPMDENEFIDASRLVYDGIRDIRKAVLMIRTPEELDDSDFETEDFDVRSRTSVQTEDDQLIAGQSARAIMAQLPQEQKAKIAEQVASFQEEKSKLDAEVSKWDDSGNDIIVLAKQMCMIMMEMTDFTRGKGPLKNTSDVISAAKKIAEAGSRMDKLGRTIADHCPDSACKQDLLAYLQRIALYCHQLNICSKVKAEVQNLGGELVVSGVDSAMSLIQAAKNLMNAVVQTVKASYVASTKYQKSQGMASLNLPAVSWKMKAPEKKPLVKREKQDETQTKIKRASQKKHVNPVQALSEFKAMDSI

Legend:
3xFLAG-mScarlet-APC = 3xFLAG-mScarlet-APC (human (endogenous in HEK293), UniProt P25054 1-2843); assay: affinity purification with mass spectrometry
Chain of 3xFLAG-mScarlet-APC (P25054 whole entry): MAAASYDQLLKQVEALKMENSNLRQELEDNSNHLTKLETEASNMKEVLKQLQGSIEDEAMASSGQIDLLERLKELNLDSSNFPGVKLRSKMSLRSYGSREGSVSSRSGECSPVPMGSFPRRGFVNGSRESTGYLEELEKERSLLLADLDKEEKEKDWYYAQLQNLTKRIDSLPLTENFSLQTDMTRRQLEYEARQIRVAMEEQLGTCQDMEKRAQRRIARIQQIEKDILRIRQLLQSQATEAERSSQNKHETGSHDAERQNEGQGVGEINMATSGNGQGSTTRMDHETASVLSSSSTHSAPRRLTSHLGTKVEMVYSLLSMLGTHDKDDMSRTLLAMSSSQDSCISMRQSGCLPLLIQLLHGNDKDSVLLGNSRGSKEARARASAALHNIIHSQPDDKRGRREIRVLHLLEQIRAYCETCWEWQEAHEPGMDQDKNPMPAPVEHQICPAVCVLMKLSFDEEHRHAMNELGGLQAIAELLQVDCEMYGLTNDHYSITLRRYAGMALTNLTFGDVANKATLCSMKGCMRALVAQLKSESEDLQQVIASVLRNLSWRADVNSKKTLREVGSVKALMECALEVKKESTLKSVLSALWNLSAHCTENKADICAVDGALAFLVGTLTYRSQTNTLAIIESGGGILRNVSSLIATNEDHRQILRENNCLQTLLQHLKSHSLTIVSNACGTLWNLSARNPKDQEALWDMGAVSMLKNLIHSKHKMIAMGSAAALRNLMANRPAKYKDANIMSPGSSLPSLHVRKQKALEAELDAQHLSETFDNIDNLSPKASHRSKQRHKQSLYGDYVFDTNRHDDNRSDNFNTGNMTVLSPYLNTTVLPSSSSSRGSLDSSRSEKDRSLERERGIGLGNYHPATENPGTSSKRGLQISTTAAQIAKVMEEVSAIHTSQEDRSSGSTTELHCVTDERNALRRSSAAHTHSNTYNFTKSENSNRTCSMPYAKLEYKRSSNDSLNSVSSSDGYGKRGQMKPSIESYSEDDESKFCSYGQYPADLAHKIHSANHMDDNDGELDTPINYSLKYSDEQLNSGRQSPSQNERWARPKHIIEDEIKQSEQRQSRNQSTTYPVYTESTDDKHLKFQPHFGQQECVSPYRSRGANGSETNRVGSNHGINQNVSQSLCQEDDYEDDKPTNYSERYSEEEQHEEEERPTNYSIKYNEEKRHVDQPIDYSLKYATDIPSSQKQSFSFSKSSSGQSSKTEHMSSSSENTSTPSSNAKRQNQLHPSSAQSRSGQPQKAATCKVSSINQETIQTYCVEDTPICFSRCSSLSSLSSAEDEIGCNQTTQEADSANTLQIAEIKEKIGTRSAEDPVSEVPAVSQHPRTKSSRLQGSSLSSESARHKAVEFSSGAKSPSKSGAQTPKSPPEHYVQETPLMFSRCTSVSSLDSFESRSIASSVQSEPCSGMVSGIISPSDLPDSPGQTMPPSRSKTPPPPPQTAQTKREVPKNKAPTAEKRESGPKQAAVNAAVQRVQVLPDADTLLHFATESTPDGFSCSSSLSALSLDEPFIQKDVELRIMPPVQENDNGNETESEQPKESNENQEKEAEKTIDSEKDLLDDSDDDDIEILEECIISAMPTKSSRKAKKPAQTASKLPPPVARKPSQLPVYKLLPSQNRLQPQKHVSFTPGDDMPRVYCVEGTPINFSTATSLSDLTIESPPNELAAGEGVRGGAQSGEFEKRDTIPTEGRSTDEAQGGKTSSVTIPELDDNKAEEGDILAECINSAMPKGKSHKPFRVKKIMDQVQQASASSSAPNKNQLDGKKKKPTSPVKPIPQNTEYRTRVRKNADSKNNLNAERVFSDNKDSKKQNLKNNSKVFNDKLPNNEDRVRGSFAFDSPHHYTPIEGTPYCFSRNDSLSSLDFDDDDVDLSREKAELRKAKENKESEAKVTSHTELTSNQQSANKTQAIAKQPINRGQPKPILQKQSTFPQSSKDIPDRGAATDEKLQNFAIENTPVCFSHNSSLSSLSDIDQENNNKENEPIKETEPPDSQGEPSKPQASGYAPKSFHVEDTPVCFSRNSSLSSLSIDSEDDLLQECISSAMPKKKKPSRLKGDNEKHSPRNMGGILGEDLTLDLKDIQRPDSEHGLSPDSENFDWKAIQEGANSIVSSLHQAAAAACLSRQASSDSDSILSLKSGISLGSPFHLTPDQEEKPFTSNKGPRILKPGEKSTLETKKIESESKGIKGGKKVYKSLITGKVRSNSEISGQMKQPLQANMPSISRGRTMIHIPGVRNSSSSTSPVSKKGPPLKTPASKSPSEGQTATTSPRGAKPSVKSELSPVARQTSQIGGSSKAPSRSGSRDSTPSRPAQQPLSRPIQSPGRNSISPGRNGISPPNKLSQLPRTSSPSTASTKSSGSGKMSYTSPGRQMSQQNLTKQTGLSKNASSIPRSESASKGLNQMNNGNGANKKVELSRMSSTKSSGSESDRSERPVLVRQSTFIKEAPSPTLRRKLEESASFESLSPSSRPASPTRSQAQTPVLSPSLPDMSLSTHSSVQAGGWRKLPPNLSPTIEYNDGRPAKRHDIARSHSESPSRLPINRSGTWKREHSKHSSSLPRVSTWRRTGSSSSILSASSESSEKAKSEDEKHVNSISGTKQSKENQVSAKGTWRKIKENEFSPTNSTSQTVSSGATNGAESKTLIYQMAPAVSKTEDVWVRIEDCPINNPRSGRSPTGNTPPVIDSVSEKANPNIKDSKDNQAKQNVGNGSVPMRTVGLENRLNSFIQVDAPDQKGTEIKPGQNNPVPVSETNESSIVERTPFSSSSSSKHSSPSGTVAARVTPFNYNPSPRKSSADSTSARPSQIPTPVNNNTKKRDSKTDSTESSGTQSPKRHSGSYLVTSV

3xFLAG-eGFP-Axin1 = 3xFLAG-eGFP-Axin1 (UniProt O15169 1-862); assay: affinity purification with mass spectrometry
Chain of 3xFLAG-eGFP-Axin1 (O15169 whole entry): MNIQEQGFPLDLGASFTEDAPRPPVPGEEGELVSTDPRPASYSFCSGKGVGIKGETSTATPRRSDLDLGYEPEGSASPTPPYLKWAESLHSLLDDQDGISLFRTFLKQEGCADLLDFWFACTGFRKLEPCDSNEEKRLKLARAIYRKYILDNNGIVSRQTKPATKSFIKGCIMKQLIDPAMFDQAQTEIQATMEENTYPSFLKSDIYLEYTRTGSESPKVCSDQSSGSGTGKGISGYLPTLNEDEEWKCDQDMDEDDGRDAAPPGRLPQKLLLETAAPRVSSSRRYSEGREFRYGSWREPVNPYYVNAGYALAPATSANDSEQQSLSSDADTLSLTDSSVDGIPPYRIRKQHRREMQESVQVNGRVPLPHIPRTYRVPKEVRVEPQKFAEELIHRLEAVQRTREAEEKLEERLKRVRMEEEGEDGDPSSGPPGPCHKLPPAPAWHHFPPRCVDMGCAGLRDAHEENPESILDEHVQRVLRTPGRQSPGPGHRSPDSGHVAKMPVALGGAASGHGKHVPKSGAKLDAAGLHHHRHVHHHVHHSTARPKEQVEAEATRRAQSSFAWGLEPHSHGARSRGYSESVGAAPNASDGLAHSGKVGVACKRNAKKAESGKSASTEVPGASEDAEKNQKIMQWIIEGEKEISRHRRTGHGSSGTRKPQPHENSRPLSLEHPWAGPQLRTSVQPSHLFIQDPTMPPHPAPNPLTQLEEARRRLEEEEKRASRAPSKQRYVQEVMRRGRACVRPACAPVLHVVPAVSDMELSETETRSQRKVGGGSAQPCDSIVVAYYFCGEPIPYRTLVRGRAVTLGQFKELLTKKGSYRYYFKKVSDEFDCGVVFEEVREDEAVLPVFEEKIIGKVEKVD

Row | Binder | fold reduction of the interaction after puromycin (3xFLAG-mScarlet-APC) | fold decrease in binding after puromycin (3xFLAG-eGFP-Axin1)
1 | B1 | ~4 fold | ~10 fold
2 | B2 |  | ~10 fold
